According to US20230203482A1, “Methods of Rescuing Stop Codons via Genetic Reassignment with ACE-tRNA” (THE WISTAR INSTITUTE OF ANATOMY AND BIOLOGY, priority 2017, published 2023):
Numbering of substitutions follows the chain as printed.

B1: GlnTAAchr1.trna17: ACE-tRNA Gln, TAA suppressor, SEQ ID NO: 26 (nucleic acid)
chain: CGTCGGTTCCATGGTGTAATGGTGAGCACTCTGGACTTTAAATCCAGCGATCCGAGTTCGAGTCTCGGTGGAACCT
modifications: expressed or natural sequence
B2: GlnTAAchr6.trna1: ACE-tRNA Gln, TAA suppressor, SEQ ID NO: 27 (nucleic acid)
chain: B1 chain with G24T, G60A, G62A
modifications: expressed or natural sequence
B3: GlnTAAchr17.trna14: ACE-tRNA Gln, TAA suppressor, SEQ ID NO: 28 (nucleic acid)
chain: B1 chain with T8C, G24T, G60A, G62A, A72G
modifications: expressed or natural sequence
B4: GlnTAAchr6.trna63: ACE-tRNA Gln, TAA suppressor, SEQ ID NO: 29 (nucleic acid)
chain: B1 chain with T8C, G24T, G49A, G62A, A72G
modifications: expressed or natural sequence
B5: GlnTAAchr1.trna101: ACE-tRNA Gln, TAA suppressor, SEQ ID NO: 24 (nucleic acid)
chain: B1 chain with G24A
modifications: expressed or natural sequence
B6: GlnTAAchr6.trna175: ACE-tRNA Gln, TAA suppressor, SEQ ID NO: 25 (nucleic acid)
chain: B1 chain with T7C, T8C, G24T, G60A, G62A, A72G
modifications: expressed or natural sequence

What was measured:
[1] = system: native stop codons (TAA, TAG, TGA) of HEK293 transcripts; experiment: Ribosome footprint profiling of transcriptome-wide 3′UTRs; type: cell-based, human
Text: The question was raised whether ACE-tRNAs that show efficacious suppression of premature stop codons may also induce global readthrough of native stop codons. To address this potential “off target” suppression, a transcriptome-wide quantitative profile of actively engaged ribosomes on all cellular transcripts was obtained by generating libraries of ribosome footprints from HEK293 cells expressing exogenous ACE-tRNAs or a control mock plasmid (puc57GG). Streptomycin was removed from the growth media to prevent readthrough artifacts. For comparison, the ribosome footprint library was also generated from cells in the presence or absence of G418 (150 μM, 48 hours). […] Only transcripts with a minimum threshold of 5 RPKM in the coding sequence and 0.5 RPKM in the 3′UTR in two replicate libraries were included for the quantitation comparison (254 transcripts in G418 and 495-748 transcripts in ACE-tRNAs). […] ACE-tRNAs examined here had no detectable change of 3′UTR ribosome density with the exception of ACE-tRNA Gln-UAA and Arg-UGA which induced approximately a 2-fold increase in 3′UTR ribosome density for the cognate stop codon complimentary to the ACE-tRNA anticodon. Understanding the biological significance of 2-fold readthrough of protein stops will require further study, but this effect is substantially lower compared to the 100- to 1000-fold suppression of PTC for the same ACE-tRNA.
Multiple in-frame stop codons are frequently found at the end of genes^37-39 and may cause a minor difference in overall 3′UTR ribosome density for ACE-tRNA and G418 treatment. Ribosome occupancy was examined at each nucleotide in the 3′UTR within a 60 nt region downstream of the stop codons. […] Reads were normalized per total million-mapped reads, compared against control cells, and reported as a log 2-fold change as in panel A. More than 5,200 transcripts were mapped to at least 1 footprint in the region of interest. […] Taken together, the ribosome profiling data argue that efficiency of native stop codon suppression by ACE-tRNAs is generally low, and markedly less than the level of PTC suppression.
Ribosome Footprint Profiling Library preparation. HEK293 cells transiently transfected with ACE-tRNAs and control plasmid (puc57GG) were grown in standard grown media in the absence of Pen-Strep for 48 h. Libraries were prepared as described^55, with a few modifications. Briefly, cells were rapidly cooled by addition of ice-cold PBS, lysed in lysis buffer (20 mM Tris-HCl/pH7.4, 150 mM NaCl, 5 mM MgCl2, 1 mM DTT, 1% (v/v) Triton X-100, and 25 U ml^−1 Turbo DNase I) for 10 min on ice, and triturated with ten times through a 26-G needle. After clearance by centrifugation at 16,000 g for 10 min at 4° C., the lysates were digested with 100 U RNase I (Ambion, USA) per A260 lysate at room temperature for 45 min with gentle agitation prior to adding 200 U RiboLock RNase Inhibitor (Thermo Scientific). Ribosome protected mRNA fragments were then isolated by loading lysates onto a 1M sucrose cushion prepared in modified polysome buffer (20 mM Tris-HCl/pH7.4, 150 mM NaCl, 8.5 mM MgCl2, 0.5 mM DTT, 20 U ml^−1 RiboLock RNase Inhibitor) and centrifugated at 70,000 rpm at 4° C. for 2 h using a Beckmen TLA-110 rotor. Ribosome pellets containing mRNA footprints were extracted using TRIzol and separated on a denaturing 12% polyacrylamide gel containing 8M urea. RNA fragments with sizes ranging from 26 to 34 nt were manually excised from the gel stained with SYBR Gold (Invitrogen) and isolated to generate the ribosome-protected fragment library. Contaminating rRNA fragments depleted using a Ribo-Zero kit (Illumina). 3′ Oligonucleotide adaptor ligation, reverse transcription, circularization, and secondary rRNA depletion using biotinylated rRNA depletion oligos (Table 9) were performed as described^55. Libraries were barcoded using indexing primers for each sample during PCR amplification. […]

NLuc-UAA PTC = experiment: NanoLuc nonsense reporter screen (all-in-one HTC plasmid), TAA/UAA PTC, HEK293 cells; type: cell-based, human; details: Table 3, Gln TAA
Text: In order to enable the identification of the nucleotide composition and functional ability to suppress nonsense codons by new types of tRNA, an All-In-One Plasmid With A One Pot Cloning Reaction was invented for High Throughput Cloning FIG. 11. This approach enables the facile investigation of ACE-tRNA activity via luciferase activity in a standard 96 well format. Briefly, synthetic nucleotide sequences encoding for tRNA are ligated into the NanoLuc Reporter plasmid, with an example of the TGA nonsense reporter plasmid variant shown in FIG. 11. […] and TAG (amber) stop codon rescue vectors have been successfully designed and implemented in FIGS. 16-19. The benefits are the approach is that DNA oligos encoding for tRNA libraries can be ligated in the NanoLuc reporter plasmid with the presence of the restriction enzyme and ligase with the reaction pushed to nearly 100% incorporation of tRNA insert (FIG. 11)-thus the ‘one-pot’ designation. The reaction is transformed into E. coli, with the resultant cDNA purified by standard methods. Another benefit of the invented method is that the tRNA and reporter gen are within the single expression cassette, therefore lowering biological variability and improving data quality obtaining in resulting screens of tRNA suppression activity. The purified cDNA plasmids are then screened in high-throughput 96 well format for their ability to repair nonsense codons by inferred luciferase activity. The approach is suitable for the high-throughput screening of hundreds to thousands of tRNA for novel therapeutic activity.
The rationale of this study is rooted in the observation that there are multiple tRNA genes with unique sequences (isodecoders) for a given cognate amino acid (isoacceptors), leading to >400 tRNAs annotated in the human genome (http:lowelab.ucsc.edu/GtRNAdb/)^28, 29. First, tRNA genes were examined to identify individual ACE-tRNAs that retain suppression efficacy of PTCs in mammalian cells. In order to maximize sequence coverage, an all-in-one cDNA plasmid was generated that supports both high-throughput cloning (HTC) of ACE-tRNAs and quantitative measurement of PTC suppression using luminescence following delivery to mammalian cells, FIG. 21B. ACE-tRNA sequences were cloned as DNA oligos into the HTC plasmid using Golden Gate cloning^30 paired with ccdB negative selection^31. This strategy produced ˜100% cloning efficiency. ACE-tRNA suppression efficiency was read out from a split NanoLuc luciferase (NLuc) NanoBiT platform whereby the PTC of interest (UGA, UAA, or UAG) was introduced in-frame at the junction between the large bit and small bit domains, FIG. 21B^32, using a 96-well format and normalized to background obtained in NLuc-PTC expressing cells. Twenty-one glycine ACE-tRNAs were first evaluated for suppression of the UGA PTC, FIG. 22, top left, column 1 (violet). […] Given the high sequence conservation among the Gly-tRNAs screened for anti-codon tolerance (FIG. 27), it would be difficult to predict de novo which tRNA would be most amenable to anticodon-editing.
The parent plasmid used was pcDNA3.1(+). The cDNA encoding pNLuc was Gibson Assembled (New England Biolabs, USA) into restriction sites HindIII and XhoI. A glycine (codon gga), tryptophan ([…]), amber (tag), opal (tga) and ochre (taa), were added to amino acid position 160 during cDNA per. The pcDNA3.1(+) polyA sequence was replaced for one with no BbsI restriction sites using per based Gibson Assembly. The high throughput ACE-tRNA Golden Gate cloning site was generated by first inserting the 5′ leader sequence of the human tRNA^Tyr gene (bold) with a T7 promoter sequence upstream (italics)
tRNA gene sequences were obtained from the tRNA database tRNAscan-SE (http://gtrnadb.ucsc.edu/index.html; PMID: 26673694). […]

| Molecule | ribosome occupancy at each nucleotide in the 3′UTR downstream of stop codons ([1]; HEK293, log 2-fold change versus control) | change of 3′UTR ribosome density versus control ([1]; HEK293, G418 150 μM, 48 hours, cognate stop codon group) | Ranking (NLuc-UAA PTC) |
| --- | --- | --- | --- |
| CN[C@@H]1[C@@H](O)[C@@H](O[C@@H]2[C@@H](O)[C@H](O[C@H]3O[C@H]([C@@H](C)O)[C@@H](O)[C@H](O)[C@H]3N)[C@@H](N)C[C@H]2N)OC[C@]1(C)O [G418, reference compound] | no observable change of ribosome occupancy | no observable effect |  |
| B1 |  |  | #3 |
| B2 |  |  | #4 |
| B3 |  |  | #5 |
| B4 |  |  | #5.2 |
| B5 |  |  | #1 |
| B6 |  |  | #2 |
